Test results from paper PMC3700536 (Nature communications, 2013).

T1: purified β2-chimaerin (UniProt P52757-1 1-468)
T1 sequence: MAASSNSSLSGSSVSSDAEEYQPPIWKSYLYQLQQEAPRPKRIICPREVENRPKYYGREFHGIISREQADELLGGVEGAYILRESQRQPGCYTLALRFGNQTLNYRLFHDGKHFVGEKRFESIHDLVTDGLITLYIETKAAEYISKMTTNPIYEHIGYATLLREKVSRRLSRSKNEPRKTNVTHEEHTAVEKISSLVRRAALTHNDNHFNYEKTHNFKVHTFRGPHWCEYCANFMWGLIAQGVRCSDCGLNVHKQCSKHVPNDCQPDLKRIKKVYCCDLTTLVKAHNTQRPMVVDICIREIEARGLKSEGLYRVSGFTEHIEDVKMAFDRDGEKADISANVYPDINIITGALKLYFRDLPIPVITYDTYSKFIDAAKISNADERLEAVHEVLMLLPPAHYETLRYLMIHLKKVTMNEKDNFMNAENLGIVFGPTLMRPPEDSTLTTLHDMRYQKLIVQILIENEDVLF


Legend:
GST-Nck1 SH3-3 = GST-Nck1 SH3-3 (UniProt P16333); experiment: SPR
purified β2-chimaerin = molecular target: T1, purified β2-chimaerin; experiment: co-sedimentation

| Molecule | Kd (GST-Nck1 SH3-3) [µM] | Kd (purified β2-chimaerin) [µM] |
| --- | --- | --- |
| WT-β2-chim peptide (β2-chimaerin amino acids 34–59) | 18 | – |
| Nck1 SH3-3 (purified third SH3 domain of Nck1) (domain or fragment) QVLHVVQALYPFSSSNDEELNFEKGDVMDVIEKPENDPEWWKCRKINGMVGLVPKNYVTVMQN | – | 1.7 |
